Data taken from US20230273213A1, “PEPTIDE DESIGN AND GALECTIN-3 INHIBITORS” (City of Hope, priority 2020, published 2023).

Assays:
GST-Galectin-3 = molecular target: T1, GST-Galectin-3 (Homo sapiens, UniProt P17931); test: Galectin-3 mediated agglutination assay on LAX56 pre-B ALL cells; format: cell-based
T1 construct: Full-length human GST-Galectin-3 (hereafter named GST-Gal3) in pGEX2T was previously described; made in house
Experimental: Cells, culture and agglutination assay. LAX56 human pre-B ALL cells were routinely co-cultured with mitomycin-C inactivated OP9 stromal cells. These previously described primary leukemia cell grew directly out from a relapse bone marrow sample (36, 37). For agglutination assays, cells were harvested, washed once in α-MEM medium, resuspended in 10 ml X-VIVO 15 medium (Lonza) and incubated at 37° C. for 24 h remove the Galectin-3 produced by OP9 stromal cells. For the assay, ALL cells were resuspended in X-VIVO 15 medium at a concentration of 1×10^6/ml and seeded at 2×10^5/200 μl cells into wells. […] Peptides, if included, were preincubated for 5 minutes with the recombinant proteins and added at different concentrations as indicated in the figures. TD139 was purchased from MedChemExpress and used at 100 μM. Phase contrast images were taken after 1-2 hours. Agglutination was defined as aggregates containing >10 cells per cluster. 2-13 images from different areas were taken and evaluated for cell clusters per condition. Biological data were graphed with GraphPad Prism software (version8.3.1). Values represent mean±SEM of the number of aggregates scored per independent image.
We used two approaches to test this experimentally. Mutation of critical residues in that pocket could abolish binding to the IDR and the agglutination activity of Galectin-3. Also, a peptide could potentially fit in the shallow pocket and inhibit the IDR interaction. A classical test for carbohydrate-binding activity of a lectin including Galectin-3 is an agglutination assay (36, 38, 42). In this assay, recombinant Galectin-3 is tested for its ability to promote lattice formation by binding in a multivalent manner to glycoproteins located on the cell surface: when cell surface glycoprotein targets are located on different cells, carbohydrate binding combined with multimer formation causes cellular agglutination. […] Thus we used an agglutination assay in which recombinant Galectin-3 is added to patient-derived precursor B-acute lymphoblastic leukemia cells (pre-B ALL) as a readout for Galectin-3 lattice-forming activity.

GST-Gal3 L203A = molecular target: T2, GST-Gal3 L203A (Homo sapiens, UniProt P17931, L203A); test: agglutination assay with GST-Gal3 L203A mutant; format: cell-based; details: LAX56 cells
T2 construct: Full-length human GST-Galectin-3 (hereafter named GST-Gal3) in pGEX2T was previously described; made in house; host or cells: E. coli BL21(DE3)
Experimental: (§1) Cells, culture and agglutination assay. LAX56 human pre-B ALL cells were routinely co-cultured with mitomycin-C inactivated OP9 stromal cells. These previously described primary leukemia cell grew directly out from a relapse bone marrow sample (36, 37). For agglutination assays, cells were harvested, washed once in α-MEM medium, resuspended in 10 ml X-VIVO 15 medium (Lonza) and incubated at 37° C. for 24 h remove the Galectin-3 produced by OP9 stromal cells. For the assay, ALL cells were resuspended in X-VIVO 15 medium at a concentration of 1×10^6/ml and seeded at 2×10^5/200 μl cells into wells. GST (12.5 μg/ml) or GST-Galectin-3 (25 μg/ml or 150 μg/ml, two different isolates) recombinant proteins were added in 300 μl X-VIVO 15 medium to duplicate wells. Peptides, if included, were preincubated for 5 minutes with the recombinant proteins and added at different concentrations as indicated in the figures. TD139 was purchased from MedChemExpress and used at 100 μM. Phase contrast images were taken after 1-2 hours. Agglutination was defined as aggregates containing >10 cells per cluster. 2-13 images from different areas were taken and evaluated for cell clusters per condition. Biological data were graphed with GraphPad Prism software (version8.3.1). Values represent mean±SEM of the number of aggregates scored per independent image.
(§2) GST-Galectin-3 and mutants. […]

GST-Gal3 L131A = molecular target: T3, GST-Gal3 L131A (Homo sapiens, UniProt P17931, L131A); test: agglutination assay with GST-Gal3 L131A mutant; format: cell-based; details: LAX56 cells
T3 construct: Full-length human GST-Galectin-3 (hereafter named GST-Gal3) in pGEX2T was previously described; made in house; host or cells: E. coli BL21(DE3)
Experimental: as §1, §2

Galectin-3 CTD = molecular target: T4, Galectin-3 CTD (Homo sapiens, UniProt P17931); test: 15N-1H HSQC NMR titration of Galectin-3 CTD with peptide-3; format: binding
T4 construct: We generated a Galectin-3 CTD construct including amino acids 117-250; GST (N, cleaved yes); made in house; host or cells: E. coli BL21(DE3), M9 medium with 15N ammonium chloride
Experimental: Galectin-3 CTD construct for NMR. The Galectin-3 C-terminal domain construct was generated using the same methods described above for the mutants. The protein includes Galectin-3 amino acids P117-1250 as well as residual attached glycine and serine residues after thrombin cleavage. Single colonies were grown overnight in LB+ amp, collected by centrifugation then inoculated in M9 media with ammonium-^15N chloride (Sigma) and grown for 3-4 hours. After induction of protein production with IPTG for an 3-4 additional hrs, cells were harvested and suspended in 1% NP40, PI, PMSF, 1 mM DTT, 50 mM Tris-HCl, pH 7.5. Cells were disrupted by sonication. GST-Galectin-3 was bound to glutathione-agarose (Genscript Cat #L00207) overnight at 4° C. Beads were washed 4× in lysis buffer, then suspended in 50 mM Tris-HCl pH 7.5, 0.1 mM DTT and treated with 60 u thrombin/ml (Fisher Cytiva Thrombin Protease) for 16 hrs at RT. The supernatant containing Galectin-3 protein was treated with benzamidine sepharose (Sigma, HiTrap Benzamidine FF) to bind and remove thrombin. Protein was concentrated using an Amicon 3K filter and used in 20 mM potassium phosphate buffer pH 6.8, 0.1 mM DTT for NMR. Protein concentrations were determined by BCA.
NMR. ^15N-^1H HSQC 700 MHz spectra were acquired with 20 μM Galectin-3 CTD [in 20 mM potassium phosphate buffer, pH 6.8, 0.1 mM DTT] and different molar ratios of added peptide-3 as indicated in FIG. 5. The chemical shift perturbation (CSP) 06 was calculated using the following equation: Δ\ delta=√{square root over ((ΔωN^2+ΔωH^2)/2)}. The ΔωN and ΔωH are the nitrogen and proton chemical shift difference between free ^15N-CTD and that in the mixture with P3 peptide. Assignments are based on the Galectin-3 CTD NMR data of Ippel (25) and Umemoto (39). […] Because L135 and W181 patterns differ between Ippel and Umemoto, their assignments could not be unambiguously determined. […]

[1] = GST-Gal3, 1-2 hours, peptide preincubated 5 minutes with protein

T1 sequence (P17931 2-250): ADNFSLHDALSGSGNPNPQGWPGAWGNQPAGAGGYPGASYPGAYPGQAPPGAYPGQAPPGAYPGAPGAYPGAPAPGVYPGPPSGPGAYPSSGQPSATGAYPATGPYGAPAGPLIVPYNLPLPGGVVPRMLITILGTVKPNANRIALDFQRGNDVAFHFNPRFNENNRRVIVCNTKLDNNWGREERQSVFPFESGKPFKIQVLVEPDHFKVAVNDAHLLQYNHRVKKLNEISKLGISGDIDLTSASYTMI
T4 sequence (P17931 117-250): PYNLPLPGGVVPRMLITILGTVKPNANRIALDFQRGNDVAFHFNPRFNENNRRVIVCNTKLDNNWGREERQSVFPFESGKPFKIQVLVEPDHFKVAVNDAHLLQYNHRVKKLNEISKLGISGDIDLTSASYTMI
T3 sequence (P17931 whole entry L131A): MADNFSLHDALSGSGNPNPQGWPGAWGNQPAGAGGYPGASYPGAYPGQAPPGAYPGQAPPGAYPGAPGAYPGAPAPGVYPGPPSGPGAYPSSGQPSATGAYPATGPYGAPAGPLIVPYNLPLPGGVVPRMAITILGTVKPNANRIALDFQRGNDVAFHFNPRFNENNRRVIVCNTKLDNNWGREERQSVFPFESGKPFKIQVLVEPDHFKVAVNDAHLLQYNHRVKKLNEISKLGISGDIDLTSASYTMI
T2 sequence (P17931 whole entry L203A): as the sequence (P17931 whole entry L131A) above, with A131L, L203A counted along it

“ACE-YYPGAYPRRYR-NH2 (Ac-YYPGAYPRRYR-NH2) [Peptide 3]” was tested, and the “effect on Galectin-3-mediated agglutination” value (“effect” below) (GST-Galectin-3; [1]) was “positive hit”, the “effect” value (GST-Galectin-3; GST-Gal3, 1-2 hours, peptide preincubated 5 minutes with protein, listed as P3) was “efficiently inhibits” and the “effect” value (GST-Galectin-3; GST-Gal3, 1-2 hours, peptide preincubated 5 minutes with protein, listed as YYPGAYPRRYR) was “inhibits Galectin-3 mediated agglutination”. The “effect” value (GST-Galectin-3; GST-Gal3, 1-2 hours, peptide preincubated 5 minutes with protein, listed as peptide 3) was “inhibits agglutination”, the “effect” value (GST-Galectin-3; GST-Gal3, 1-2 hours, peptide preincubated 5 minutes with protein, listed as peptide-3) was “clearly was inhibitory” and the “inhibition of agglutination mediated by the L203A mutant” value (GST-Gal3 L203A) was “could still be inhibited”. The “inhibition of agglutination mediated by the L131A mutant” value (GST-Gal3 L131A) was “largely insensitive to inhibition”, the “contacts with the CTD by NMR” value (Galectin-3 CTD; 20 μM 15N CTD, up to 100:1 peptide:CTD) was “makes extensive contacts with amino acids in the CTD” and the “shift of S-face residues R186, K227 or Y221 upon exposure” value (Galectin-3 CTD; data not shown) was “no shift”. The “chemical shift perturbation (CSP) of residue T248” value (Galectin-3 CTD; one unit of RMSD) was “about 10.9 Hz”.
In the case of OC[C@H]1O[C@@H](S[C@@H]2O[C@H](CO)[C@H](O)[C@H](n3cc(-c4cccc(F)c4)nn3)[C@H]2O)[C@H](O)[C@@H](n2cc(-c3cccc(F)c3)nn2)[C@H]1O [TD139, 3-deoxy-3-[4-(3-fluorophenyl)-1H-1,2,3-triazol-1-yl]-β-D-galactopyranosyl 3-deoxy-3-[4-(3-fluorophenyl)-1H-1,2,3-triazol-1-yl]-1-thio-β-D-galactopyranoside, reference compound], the “effect” value (GST-Galectin-3; GST-Gal3, 100 μM, positive control) was “clearly inhibited”.
For “ACE-ARAMGYPGASY-NH2 (Ac-ARAMGYPGASY-NH2) [Peptide 1]”, the “effect” value (GST-Galectin-3; [1]) was “had no effect on agglutination”.
For “PTHVTCKYCPAGNRDP [Peptide-5, scrambled negative control peptide described in the same study, reference compound]”, the “effect” value (GST-Galectin-3; [1]) was “did not have an effect”.
For “N-terminal acetyl-ARAFGYPIYSY-C-terminal amide (Ac-ARAFGYPIYSY-NH2) [Peptide 2]”, the “effect” value (GST-Galectin-3; [1]) was “had no effect on agglutination”.
“ANTPCGPYTHDCPVKR [Peptide-4, reference compound]” was tested, and the “effect” value (GST-Galectin-3; [1]) was “did not have an effect”.
